Data from patent US20150197579A1 (MorphoSys, published 2015).

Columns and labels:
Adalimumab/TNF-α complex = Adalimumab/TNF-α complex (human, UniProt P01375 77-233); experiment: real time, label free interaction analysis, Attana A200, immobilized Adalimumab-TNF-α complex, monovalent
Ustekinumab [1] = molecular target: T1, Ustekinumab; experiment: ELISA: antigen coated at 5 µg/mL, Fab-FH at 2 µg/mL, HRP-labeled anti-His antibody, QuantaBlu
T1 construct: not shown: the constant regions
Protocol: (§1) 5 μg/mL of each of the antigens were coated on a microtiter plate over night. […] Detection was performed using an HRP-labeled anti-His antibody and QuantaBlu fluorogenic peroxidase substrate.
(§2) Therefore 5 μg/mL of each of the antigens were coated on a microtiter plate over night. […] Detection was performed using an HRP-labeled anti-His antibody and QuantaBlu fluorogenic peroxidase substrate.

BSA = BSA (bovine, UniProt P02769); experiment: as above
Protocol: as §1, §2

Adalimumab [2] = molecular target: T2, Adalimumab; experiment: as above
T2 construct: not shown: the constant regions
Protocol: as §1, §2

Bevacizumab = molecular target: T3, Bevacizumab; experiment: as above
T3 construct: not shown: the constant regions
Protocol: as §1, §2

Rituximab [3] = molecular target: T4, Rituximab; experiment: as above
T4 construct: Control antigen in the screening ELISA; also called Rituximab (IgG1kappa); not shown: the constant regions
Protocol: as §1, §2

Ustekinumab [4] = molecular target: T1, Ustekinumab; experiment: ELISA: antigen coated at 5 µg/mL, HRP-conjugated AdaTNF#5-hIgG1 at 2 µg/mL in HiSpec buffer, QuantaBlu
Protocol: (§3) Antigens were coated at 5 μg/mL on a microtiter plate over night. […] Detection was performed using the QuantaBlu® fluorogenic peroxidase substrate. […] (FIG. 3)

Adalimumab [5] = molecular target: T2, Adalimumab; experiment: as above
Protocol: as §3

Rituximab [6] = molecular target: T4, Rituximab; experiment: as above
Protocol: as §3

T1 sequence (VH, as listed by the source): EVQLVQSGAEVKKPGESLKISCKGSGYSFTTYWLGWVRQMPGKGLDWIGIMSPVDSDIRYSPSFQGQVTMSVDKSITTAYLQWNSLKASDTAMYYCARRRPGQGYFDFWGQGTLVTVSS
T4 sequence (VH, as listed by the source, chain 1 of 2): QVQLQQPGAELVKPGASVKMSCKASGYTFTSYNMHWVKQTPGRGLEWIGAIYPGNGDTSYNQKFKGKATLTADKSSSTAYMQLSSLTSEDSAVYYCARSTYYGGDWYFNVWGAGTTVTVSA
T4 sequence (VL, as listed by the source, chain 2 of 2): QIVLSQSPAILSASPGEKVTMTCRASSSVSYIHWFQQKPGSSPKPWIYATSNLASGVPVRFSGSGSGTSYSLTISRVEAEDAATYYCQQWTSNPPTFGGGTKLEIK
T3 sequence (VH, as listed by the source): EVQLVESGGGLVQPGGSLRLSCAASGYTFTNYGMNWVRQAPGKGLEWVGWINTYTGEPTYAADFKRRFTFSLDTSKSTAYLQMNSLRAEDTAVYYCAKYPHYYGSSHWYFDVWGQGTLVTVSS
Sequence of BSA (P02769 25-607 limits assumed): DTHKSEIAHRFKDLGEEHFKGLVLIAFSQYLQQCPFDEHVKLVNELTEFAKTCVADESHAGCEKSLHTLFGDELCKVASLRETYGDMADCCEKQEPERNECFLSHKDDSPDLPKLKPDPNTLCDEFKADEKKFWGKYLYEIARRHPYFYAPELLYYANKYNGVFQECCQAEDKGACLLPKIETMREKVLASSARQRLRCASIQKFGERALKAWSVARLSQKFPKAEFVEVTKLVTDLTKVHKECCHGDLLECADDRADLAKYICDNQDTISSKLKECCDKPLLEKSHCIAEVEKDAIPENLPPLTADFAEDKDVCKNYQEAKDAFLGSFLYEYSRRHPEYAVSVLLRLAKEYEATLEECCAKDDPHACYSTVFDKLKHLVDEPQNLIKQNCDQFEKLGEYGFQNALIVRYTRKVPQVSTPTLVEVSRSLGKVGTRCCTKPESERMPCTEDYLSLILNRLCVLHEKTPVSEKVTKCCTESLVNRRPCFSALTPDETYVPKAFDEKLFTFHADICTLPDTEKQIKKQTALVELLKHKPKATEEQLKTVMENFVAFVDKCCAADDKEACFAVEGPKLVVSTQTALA
Sequence of Adalimumab/TNF-α complex (P01375 77-233, one chain of several): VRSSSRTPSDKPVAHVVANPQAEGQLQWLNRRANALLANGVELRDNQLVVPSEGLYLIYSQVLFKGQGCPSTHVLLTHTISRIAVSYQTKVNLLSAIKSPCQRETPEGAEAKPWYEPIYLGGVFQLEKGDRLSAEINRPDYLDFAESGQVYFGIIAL

B1: AdaTNF#5 (Fab, V domains shown)
VH: QVQLVQSGAEVKKPGSSVKVSCKASGGTFSTNAISWVRQAPGQGLEWMGGINPHLGHADYAQKFQGRVTITADESTSTAYMELSSLRSEDTAVYYCARGWYYIGSNPSMYPNYFDPWGQGTLVTVSS
VL: DIQMTQSPSSLSASVGDRVTITCRASQTISSYLNWYQQKPGKAPKLLIYTASNLQSGVPSRFSGSGSGTDFTLTISSLQPEDFATYYCQQVLHLPHTFGQGTKVEIKR
notes: HuCAL Fab in Fab-FH format, detected by an anti-His antibody; also called AdaTNb/F#5; anti-Adalimumab/TNF-α antibody in Fab-FH format
no binding (tested: 2 µg/mL): binding result (Ustekinumab [1]) | binding result (BSA) | binding result (Adalimumab [2]) | binding result (Bevacizumab) | binding result (Rituximab [3])
67 nM: Kd (Adalimumab/TNF-α complex)

B2: AdaTNF#5-hIgG1 (antibody, V domains shown)
VH: B1 VH
VL: B1 VL
modifications: antibody conjugated to HRP, site not stated
notes: AdaTNF#5 converted into full length (bivalent) human IgG1, expressed in a human cell line, conjugated to HRP; also called anti-Adalimumab/TNF-α hIgG1 antibody AdaTNF#5 (conjugated to HRP); HRP-conjugated AdaTNF#5-hIgG1
no binding (tested: 2 µg/mL): binding result (Ustekinumab [4]) | binding result (Adalimumab [5]) | binding result (Rituximab [6])

B3: AdaTNF#1 (Fab, V domains shown)
VH: QVQLVQSGAEVKKPGSSVKVSCKASGGTFSTYAISWVRQAPGQGLEWMGGIIPIFGTANYAQKFQGRVTITADESTSTAYMELSSLRSEDTAVYYCARDYFSSIGWVVYYGPMDYWGQGTLVTVSS
VL: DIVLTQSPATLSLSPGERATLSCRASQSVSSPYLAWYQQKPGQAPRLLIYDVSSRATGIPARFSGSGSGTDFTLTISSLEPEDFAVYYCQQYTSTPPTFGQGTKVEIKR
notes: HuCAL Fab in Fab-FH format, detected by an anti-His antibody; also called anti-Adalimumab/TNF-α antibody in Fab-FH format
no binding (tested: 2 µg/mL): binding result (Ustekinumab [1]) | binding result (BSA) | binding result (Adalimumab [2]) | binding result (Bevacizumab) | binding result (Rituximab [3])
